A short description of the data set: soluble on expression in E. coli; label from the status in PepcDB or PDB records.
As to “MKTNSEELTVFVQVVESGSFSRAAEQLEMANSAVSRIVKRLEEKLGVNLLNRTTRQLNLTEEGAQYFRRAQRILQEMAAAETEMLAVHEVPQGVLRVDSAMPMVLHLLAPLAAKFNERYPHIRLSLVSSEGYINLIERKVDIALRAGELDDSGLRARHLFDSHFRVVASPEYLAKHGTPQSAEDLANHQCLGFTEPGSLNTWAVLDAQGNPYKISPHFTASSGEILRSLCLSSCGIACLSDFLVDNDITEGKLIPLFAEQTSNKTHPFNAVYYSDKAVNLRLRVFLDFLVKELGKNMNRTNTK”, the “soluble on expression in E. coli” value is on record as “not soluble”.

In the case of “MLSINPNEQTEKDNYKLLTGSIIPRPVAFVTSVTKEGVLNGAPYSYFNIVAANPPLISVSVQRKAGERKDTSRNAIEKGEFVVHISDESYVAAINETAANLPPNESEIELAKLTPIESEVISVPGVKEANIRMECVLERAIPLGGTEDSPACDLLIGRVVRFHVAEHLYEKGRIHAEGLKPISRLAGHNYAKLGEQFELVRPI”, the “soluble on expression in E. coli” value is reported as “soluble”.

Take “GMISDSISKRRSIRKYKNQSISHETIEKIIEAGINAPSSKNRQPWRFVVITEKEKESMLKAMSKGIQNEINDNGLLPGSRQHIAGANYTVEIMKQAPVTIFILNILGKSPLEKLSPEERFYEMANMQSIGAAIQNMSLTAVELGLGSLWICDVYFAYRELCEWLNTDSQLVAAISLGYPDEEPSRRPRLQLSDVTEWR”: the “soluble on expression in E. coli” value is reported as “soluble”.

With “MEILASRMLLRPADYQRSLSFYRDQIGLAIAREYGAGTVFFAGQSLLELAGYGEPDHSRGPFPGALWLQVRDLEATQTELVSRGVSIAREPRREPWGLHEMHVTDPDGITLIFVEVPEGHPLRTDTRA”, the “soluble on expression in E. coli” value was “soluble”.

As for “MTDSKYFTTTKKGEIFELKNELNSDKKEKKKEAVKKVIASMTVGKDVSALFPDVVNCMQTDNVELKKLVYLYLMNYAKSQPDLAIMAVNTFVKDCEDPNPLIRALAVRTMGCIRVEKITEYLCDPLRRCMKDEDPYVRKTAAVCVAKLHDMNPALVKEQGFVELLNDLLSDANPMVVANAVAALTEMNEQQTVIEVNSQMVNKLLTALNECTEWGQVFILDALAGYTPRDERETQNICERISPRLAHANAAVVLSTVKVLMKLIDMMPADSDFITQLTKKLAPPMVTLLSAEPEIQYVALRNINLIVQKRPDILKQEMKVFFVKYNDPIYVKMEKLDIMIRLAQQNNIAQVLSELKEYATEVDVDFVRKSVRAIGRCAIKVEASSERCVQTLLELIQTKVNYVVQEAVVVIKDIFRKYPNRYESIISALCENLDTLDEPEARASMIWIIGEYAERIDNADELLESFVEGFHDENTQVQLQLLTAVVKLFLKRPGVAQALVQRVLSLATQDSDNPDLRDRGFIYWRLLSADPAAAKNVVLTEKPLISEETDLLEPSLLEQLVCHIGTLASVYHKPPSAFIDPAKAPLRQINPIPAAKFGSSLLDTSSTPNAARNGSAAAPTVIPSQDQVIADLLSLDLNAPAASANTGAFGGAMSGTTSMGGLDDLLGLGGDPMPAAPTNSASYNPFDGLGGLGGAAPAAPPSQQPASIGGLAEIFGSGGFGGSSGITYPKELWLDASKAMGMQVEGTFVRRGGKIFMEMTITNRAMQAISGFALQFNKNSFGLIPVEQVNPAPILPNQSQNYTIACDTTGAVQVTTPLTNLQVSCSL”, the “soluble on expression in E. coli” value is reported as “not soluble”.

On to “MSLIPKFRAWDTYEKEMLENVTPLFDDSNSMIAIITDFQIKGSPGTSEIEIGSYDTTFNWDEFPYVIMQSTGLKDKNGVEIFEGDILVYDAPKKYAHRRSMHEIAYADGRFFWEFLDLVFCQSNILYRDGYLVIGNIHENPELLEGNEGHHHHHH”, for which the “soluble on expression in E. coli” value is “soluble”.

Regarding “MNDEIISNLHMLSAVHRSLPRDARKDYLSRVRGKVEHLYKAIQGNKKPEINFEVSLEEAKLADKYLKDAKKVRIGNTMSDRDEYLGLLEIADNDERKCVFIHVSIGGIEEGCIVIQLFNDIVPRTAQNFESWCTGEKRGKYGEPLHLKECEIKMILPGSVIGFGDFEENCEYFDDEKSKENHCKNVLSMNIDKSENSSAPLFNMELSDGVDRAGKAIVFGKVVMGNRVIEKVLLAGSRDGIPEQTVKISDCGEMFRGGHSHF”, the “soluble on expression in E. coli” value is reported as “not soluble”.

On to “MSLEAIVFDRSEPENVSVKVLDQLLLPYTTKYVPIHTIDDGYSVIKSMQVRGAPAIAIVGSLSVLTEVQLIKHNPTSDVATLYSLVNWESTKTVLNKRLDFLLSSRPTAVNLSNSLVEIKNILKSSSDLKAFDGSLYNYVCELIDEDLANNMKMGDNGAKYLIDVLQKDGFKDEFAVLTICNTGSLATSGYGTALGVIRSLWKDSLAKTDK”, for which the “soluble on expression in E. coli” value is “soluble”.

Regarding “GGGGGGMNLRRRGIVVSFHSNMVTVEDEETGERILCKLRGKFRLQNLKIYVGDRVEYTPDETGSGVIENVLHRKNLLTKPHVANVDQVILVVTVKMPETSTYIIDKFLVLAEKNELETVMVINKMDLYDEDDLRKVRELEEIYSGLYPIVKTSAKTGMGIEELKEYLKGKISTMAGLSGVGKSSLLNAINPGLKLRVSEVSEKLQRGRHTTTTAQLLKFDFGGYVVDTPGFANLEINDIEPEELKHYFKEFGDKQCFFSDCNHVDEPECGVKEAVENGEIAESRYENYVKMFYELLGRRKK”, the “soluble on expression in E. coli” value was “soluble”.

“MPTFSLWLPAGSNNVHPCGDPYAHHLFMRCLYHAKHDPTMKFDVKTTNVNKTSQEFKNTGLRRMPGISAEESGETQTFETEDDILDFLEYLKPERGDDEEAENATCDLFRQFARFVKDVEHRDTAFNTELLRLDKYLSEQETKFLISDDVTHIDCLVLTRLHSIRVAAKMLKNYEIPADLSHVLDYLKAGYATEMFRVSCPSDQEIVLHWTELKDTPRLSAKDRAKLVREEPVFSFSV”: the “soluble on expression in E. coli” value is on record as “not soluble”.

Turning to “GASLAPLRRMREVAARVSANSLTTRLDASRMPEELRGLAGELNAMLARLEEAFQRLSAFSADIAHELRTPLTSLLTQTQVVLSRPRSLEDYREALHGNLEELERLTAMVNDMLLLAKADHGLLAPSRQALDLGAEVDSLLEFYQPLAEDRDIRLLREGSLSLPGDRGMLRRVLANLLDNALRFTADGGEIRIRLGDRRLSVENQGPAIPPERLPRLFDRFYRADPARREGQGEHAGLGLAICRSIVQAHGGEIRCESADGWTRFVIDFAR”, the “soluble on expression in E. coli” value is given as “not soluble”.

Regarding “MELVVKSVAAASVKTATLVIPVGENRKLGAVAKAVDLASEGAISAVLKRGDLAGKPGQTLLLQNLQGLKAERVLLVGSGKDEALGDRTWRKLVASVAGVLKGLNGADAVLALDDVAVNNRDAHYGKYRLLAETLLDGEYVFDRFKSQKVEPRALKKVTLLADKAGQAEVERAVKHASAIATGMAFTRDLGNLPPNLCHPSFLAEQAKELGKAHKALKVEVLDEKKIKDLGMGAFYAVGQGSDQPPRLIVLNYQGGKKADKPFVLVGKGITFDTGGISLKPGAGMDEMKYDMCGAASVFGTLRAVLELQLPVNLVCLLACAENMPSGGATRPGDIVTTMSGQTVEILNTDAEGRLVLCDTLTYAERFKPQAVIDIATLTGACIVALGSHTTGLMGNNDDLVGQLLDAGKRADDRAWQLPLFDEYQEQLDSPFADMGNIGGPKAGTITAGCFLSRFAKAYNWAHMDIAGTAWISGGKDKGATGRPVPLLTQYLLDRAGA”, the “soluble on expression in E. coli” value is on record as “soluble”.

Turning to “MPSENSRPMPSFPRRRESRPWDNGNIQRLSESPRFWIPTFVGMTGCRFVGMTWCRFPYGWIRHSRAGGNLERKI”, the “soluble on expression in E. coli” value is “not soluble”.

Take “MGSDKIHHHHHHMNELQAILEGFESSQESGEITFLATVVKTQGSTYRRPGAKMFMTNTGRTIGTISAGCLENDVFEYTQQRMSDGKPILVTYDRTASEDILWGFGLGCNGVVQVLIERLERKSIPNAIAFTQECFHKKHLGIIATVFAFEGEVDVELGSRLLLYPNGKIVTDIKDQYLIQSLSADTQAAFVNQKPSVNNYQLPFGSAEVFIEVIQPPTPLVIFGAGYGAVPIAKFAQALGWDVTVVDCRANDTTRARFPLACDVILSNRYIIHKQIFIDVQTIAVVMTHNYLDDLEILKMMLPSPARYIGVLGTKYRTERLLEDLSIKGIVPTSEQLNRLYSPVGIDIGAETPEEIAIAIIAEIQAVLKNRNSNFLKNRNQPIHKSYQDNFNL”: the “soluble on expression in E. coli” value is given as “not soluble”.

As to “MAHHHHHHMYFLGEERHFRVLSLSFGVRGLQGSVTSEAAKIQTQMALQQTAYSACSRKVHCVSKHYLDDPFVHFFSRDMTIVNSPLMNRGTWLRTVAIERSVLSFARNWSADGPLQVISFGSGVDTLYFRLKKDHSEVNIVRYIELDFPDLVAEKQRVIEKTERLNQLVGPEYELVPCDLQKPDELREILKRVARNDVPTVLLAEMVFVYLEERTTTAILELTLNDVLKRDMCVLLIAYDAIRPNDRFGEVMVNSLASSGVPLRGIKELPTPEAHAERCKRVGLKSVMATSMRQLYLSVPQETQEWLKKLEMVDDWDEWCIMHDHYCFVLATNKAEALPTIF”, the “soluble on expression in E. coli” value is given as “not soluble”.

For the sequence “MSGINGAGPSNFFWRWRADDEPVTERERDSSSGANLTNSPQLRPESPTVSGRRLLRSNALSRQTREWQETTSASAERATPPVEPRQPPEAQPAERIVAERIVQELVRAGANLNNVRTMLRNVMDNNAVAFSRVEWNILLQHFPDMHTNGISSDSVLANELRQTLRQVVHQQRTQRALAPILSPAPSRPVASSSRSSQRTLLGRFTGWMAPRQTSSSSQATSSTSVDRHPQDLNQLESLRLADAERRNRSANQTDTDEALRRLTQAGVDMERLSTSLGRYIHSFQPAPPDLRRLLESVGIDPDIPEELTLVNNPVLNLNVALNRMLASRQATTESSSVFPSRAGDTRVRTLPVMPEREDNENNVAYGVRLLRLNPEAEVERVVEAFITDPSSRPEVVADIHAVLRSITSQFRQLRTISKADAESQDFRDAADYPDDPTSCLFGEDLSLSNPHQQVIGLAGESTDILQPYSQEGNKALRFMDMKKLAEHLASKPVHPMNRDRLDDKNIAGYAFRVVPD”, the “soluble on expression in E. coli” value is reported as “not soluble”.

Consider “MSGSFELSVQDLNDLLSDGSGCYSLPSQPCNEVTPRIYVGNASVAQDIPKLQKLGITHVLNAAEGRSFMHVNTNANFYKDSGITYLGIKANDTQEFNLSAYFERAADFIDQALAQKNGRVLVHCREGYSRSPTLVIAYLMMRQKMDVKSALSIVRQNREIGPNDGFLAQLCQLNDRLAKEGKLKP”, for which the “soluble on expression in E. coli” value was “soluble”.

“MGSDKIHHHHHHMTKVAHLTSVHSRYDIRIFRKQCRTLSQYGYDVYLVVADGKGDEVKDGVRIVDVGVLSGRLNRILKTTRKIYEQALALGADVYHFHDPELIPVGLRLKKQGKQVIFDSHEDVPKQLLSKPYMRPFLRRVVAVLFSCYEKYACPKLDAVLTATPHIREKFKNINGNVLDINNFPMLGELDAMVPWASKKTEVCYVGGITSIRGVREVVKSLECLKSSARLNLVGKFSEPEIEKEVRALKGWNSVNEHGQLDREDVRRVLGDSVAGLVTFLPMPNHVDAQPNKMFEYMSSGIPVIASNFPLWREIVEGSNCGICVDPLSPAAIAEAIDYLVSNPCEAAALGRNGQRAVNERYNWDLEGRKLARFYSDLLSKRDSI”: the “soluble on expression in E. coli” value is on record as “not soluble”.

Regarding “MNKPVAIFLMGPTASGKTDLAIALRKQLPVEVISVDSALIYKEMDIGTAKPTAAELAQAPHRLIDILDPKESYSAMHFHADALHAMADITASGRIPLLVGGTMLYYKALLEGLSPLPSANEHIRTEIEAHANQYGWASLHQQLTQIDPLAASRINANDSQRINRALEVFYLTGKNLTELTAQQGECLPYQVLQFAIAPQERAVLHQRIEQRFHKMMELGFLTEVEKLYARGDLHPDLPAIRCVGYRQMWQHLAGEISLDEAIYKGICATRQLAKRQLTWLRGWRSEITWLDSLDPTSSQEKMIQNLEQNFIKLLEHHHHHH”, the “soluble on expression in E. coli” value is on record as “soluble”.

These data come from the DeepSol protein solubility set.
